Substitutions are numbered along the chain they refer to. Names may count otherwise.
B1: PS3B27 (bispecific antibody)
chain 1: not shown
chain 2: not shown
chain 3: EVQLVESGGGLVQPGGSLRLSCAASGFTFNTYAMNWVRQAPGKGLEWVARIRSKYNNYATYYAASVKGRFTISRDDSKNSLYLQMNSLKTEDTAVYYCARHGNFGNSYVSWFAYWGQGTLVTVSSASTKGPSVFPLAPCSRSTSESTAALGCLVKDYFPEPVTVSWNSGALTSGVHTFPAVLQSSGLYSLSSVVTVPSSSLGTKTYTCNVDHKPSNTKVDKRVESKYGPPCPPCPAPEAAGGPSVFLFPPKPKDTLMISRTPEVTCVVVDVSQEDPEVQFNWYVDGVEVHNAKTKPREEQFNSTYRVVSVLTVLHQDWLNGKEYKCKVSNKGLPSSIEKTISKAKGQPREPQVYTLPPSQEEMTKNQVSLTCLVKGFYPSDIAVEWESNGQPENNYKTTPPVLDSDGSFLLYSKLTVDKSRWQEGNVFSCSVMHEALHNHYTQKSLSLSLGK
chain 4: QTVVTQEPSLTVSPGGTVTLTCRSSTGAVTTSNYANWVQQKPGQAPRGLIGGTNKRAPGTPARFSGSLLGGKAALTLSGVQPEDEAEYYCALWYSNLWVFGGGTKLTVLGQPKAAPSVTLFPPSSEELQANKATLVCLISDFYPGAVTVAWKADSSPVKAGVETTTPSKQSNNKYAASSYLSLTPEQWKSHRSYSCQVTHEGSTVEKTVAPTECS
B2: PS3B60 (bispecific antibody, human IgG4 S228P, kappa, F234A L235A)
heavy: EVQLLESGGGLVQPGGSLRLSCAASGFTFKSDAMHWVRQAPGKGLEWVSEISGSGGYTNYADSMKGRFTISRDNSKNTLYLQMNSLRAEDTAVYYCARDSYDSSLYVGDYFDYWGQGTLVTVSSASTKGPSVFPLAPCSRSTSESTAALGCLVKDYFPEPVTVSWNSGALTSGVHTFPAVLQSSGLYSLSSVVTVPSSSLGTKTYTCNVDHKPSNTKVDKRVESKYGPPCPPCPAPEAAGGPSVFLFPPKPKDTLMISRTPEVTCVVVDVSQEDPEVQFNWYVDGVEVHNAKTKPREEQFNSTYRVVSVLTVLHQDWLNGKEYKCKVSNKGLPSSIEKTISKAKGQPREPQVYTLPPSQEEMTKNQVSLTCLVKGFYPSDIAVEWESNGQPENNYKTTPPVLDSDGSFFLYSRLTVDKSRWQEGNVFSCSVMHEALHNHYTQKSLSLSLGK
light: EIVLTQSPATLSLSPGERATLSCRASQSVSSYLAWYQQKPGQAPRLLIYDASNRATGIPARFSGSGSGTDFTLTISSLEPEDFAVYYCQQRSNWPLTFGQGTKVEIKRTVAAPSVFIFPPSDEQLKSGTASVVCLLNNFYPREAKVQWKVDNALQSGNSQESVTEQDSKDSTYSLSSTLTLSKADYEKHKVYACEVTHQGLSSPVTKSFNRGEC
VH: EVQLVESGGGLVQPGGSLRLSCAASGFTFNTYAMNWVRQAPGKGLEWVARIRSKYNNYATYYAASVKGRFTISRDDSKNSLYLQMNSLKTEDTAVYYCARHGNFGNSYVSWFAYWGQGTLVTVSS
VL: QTVVTQEPSLTVSPGGTVTLTCRSSTGAVTTSNYANWVQQKPGQAPRGLIGGTNKRAPGTPARFSGSLLGGKAALTLSGVQPEDEAEYYCALWYSNLWVFGGGTKLTVL
notes: IgG4 PAA; CD3 arm with F405L, R409K; also called PSMB344 x CD3B219
B3: PS3B71 (bispecific antibody, human IgG4 S228P, kappa, F234A L235A)
heavy: not shown
light: not shown
VH: B2 VH
VL: B2 VL
notes: IgG4 PAA; CD3 arm with F405L, R409K; also called PSMB359 x CD3B219
B4: PS3B72 (bispecific antibody, human IgG4 S228P, kappa, F234A L235A)
heavy: not shown
light: not shown
VH: B2 VH
VL: B2 VL
notes: IgG4 PAA; CD3 arm with F405L, R409K; also called PSMB360 x CD3B219
B5: PS3B64 (bispecific antibody, human IgG4 S228P, kappa, F234A L235A)
heavy: not shown
light: not shown
VH: B2 VH
VL: B2 VL
notes: IgG4 PAA; CD3 arm with F405L, R409K; also called PSMB349 x CD3B219
B6: PS3B62 (bispecific antibody, human IgG4 S228P, kappa, F234A L235A)
heavy: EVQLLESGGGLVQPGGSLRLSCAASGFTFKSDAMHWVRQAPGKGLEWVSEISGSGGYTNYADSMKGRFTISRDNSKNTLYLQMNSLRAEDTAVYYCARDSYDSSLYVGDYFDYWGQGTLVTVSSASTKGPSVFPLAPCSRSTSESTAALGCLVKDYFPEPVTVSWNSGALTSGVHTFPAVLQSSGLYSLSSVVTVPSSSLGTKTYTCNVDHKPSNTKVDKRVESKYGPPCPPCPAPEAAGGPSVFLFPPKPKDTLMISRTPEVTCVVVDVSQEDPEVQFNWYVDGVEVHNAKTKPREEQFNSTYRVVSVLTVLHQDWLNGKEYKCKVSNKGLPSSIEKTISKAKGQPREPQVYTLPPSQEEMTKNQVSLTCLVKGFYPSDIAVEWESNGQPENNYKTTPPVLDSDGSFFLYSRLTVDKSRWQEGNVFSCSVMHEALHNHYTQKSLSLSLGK
light: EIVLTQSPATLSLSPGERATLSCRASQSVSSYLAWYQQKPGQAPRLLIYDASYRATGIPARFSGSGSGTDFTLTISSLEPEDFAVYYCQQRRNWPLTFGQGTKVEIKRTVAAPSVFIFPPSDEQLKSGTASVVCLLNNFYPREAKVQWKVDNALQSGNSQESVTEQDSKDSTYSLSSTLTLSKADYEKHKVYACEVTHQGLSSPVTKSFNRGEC
VH: B2 VH
VL: B2 VL
notes: IgG4 PAA; CD3 arm with F405L, R409K; also called PSMB346 x CD3B219
B7: PS3B73 (bispecific antibody, human IgG4 S228P, kappa, F234A L235A)
heavy: not shown
light: not shown
VH: B2 VH
VL: B2 VL
notes: IgG4 PAA; CD3 arm with F405L, R409K; also called PSMB361 x CD3B219
B8: PS3B75 (bispecific antibody, human IgG4 S228P, kappa, F234A L235A)
heavy: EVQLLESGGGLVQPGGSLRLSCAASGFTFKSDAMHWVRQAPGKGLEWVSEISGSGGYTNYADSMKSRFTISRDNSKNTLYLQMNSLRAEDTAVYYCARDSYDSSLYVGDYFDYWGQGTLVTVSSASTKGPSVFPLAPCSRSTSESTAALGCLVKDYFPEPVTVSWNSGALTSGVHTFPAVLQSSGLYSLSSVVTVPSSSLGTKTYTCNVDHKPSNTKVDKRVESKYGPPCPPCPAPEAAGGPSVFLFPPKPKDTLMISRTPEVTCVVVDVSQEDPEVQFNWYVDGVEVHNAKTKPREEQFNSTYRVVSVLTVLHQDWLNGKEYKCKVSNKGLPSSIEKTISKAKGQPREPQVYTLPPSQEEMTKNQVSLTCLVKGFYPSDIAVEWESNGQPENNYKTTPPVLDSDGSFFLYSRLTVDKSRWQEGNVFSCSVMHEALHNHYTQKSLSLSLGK
light: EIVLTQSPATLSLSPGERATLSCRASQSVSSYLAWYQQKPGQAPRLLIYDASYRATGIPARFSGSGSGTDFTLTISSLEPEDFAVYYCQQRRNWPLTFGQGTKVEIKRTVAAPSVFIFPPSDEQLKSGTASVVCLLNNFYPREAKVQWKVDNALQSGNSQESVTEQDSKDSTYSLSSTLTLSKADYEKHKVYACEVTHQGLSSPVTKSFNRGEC
VH: B2 VH
VL: B2 VL
notes: IgG4 PAA; CD3 arm with F405L, R409K; also called PSMB363 x CD3B219
B9: PS3B63 (bispecific antibody, human IgG4 S228P, kappa, F234A L235A)
heavy: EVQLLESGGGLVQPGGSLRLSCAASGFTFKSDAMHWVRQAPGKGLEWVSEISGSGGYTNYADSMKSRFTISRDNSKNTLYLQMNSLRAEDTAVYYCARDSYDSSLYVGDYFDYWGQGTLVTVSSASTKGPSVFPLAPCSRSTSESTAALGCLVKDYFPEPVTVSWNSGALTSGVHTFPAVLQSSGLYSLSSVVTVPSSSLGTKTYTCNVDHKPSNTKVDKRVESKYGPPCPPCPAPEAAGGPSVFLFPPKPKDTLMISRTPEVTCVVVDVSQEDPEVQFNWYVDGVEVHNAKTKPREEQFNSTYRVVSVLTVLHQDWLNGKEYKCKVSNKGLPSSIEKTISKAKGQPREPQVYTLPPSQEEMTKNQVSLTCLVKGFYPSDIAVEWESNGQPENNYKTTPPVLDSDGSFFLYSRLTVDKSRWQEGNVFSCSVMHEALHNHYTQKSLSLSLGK
light: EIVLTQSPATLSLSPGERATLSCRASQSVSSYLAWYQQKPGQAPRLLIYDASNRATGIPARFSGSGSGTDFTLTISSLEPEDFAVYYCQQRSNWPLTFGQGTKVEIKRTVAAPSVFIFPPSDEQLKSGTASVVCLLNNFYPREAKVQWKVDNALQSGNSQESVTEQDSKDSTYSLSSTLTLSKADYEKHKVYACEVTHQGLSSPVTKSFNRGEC
VH: B2 VH
VL: B2 VL
notes: IgG4 PAA; CD3 arm with F405L, R409K; also called PSMB347 x CD3B219
B10: PS3B70 (bispecific antibody, human IgG4 S228P, kappa, F234A L235A)
heavy: not shown
light: not shown
VH: B2 VH
VL: B2 VL
notes: IgG4 PAA; CD3 arm with F405L, R409K; also called PSMB358 x CD3B219
B11: PS3B74 (bispecific antibody, human IgG4 S228P, kappa, F234A L235A)
heavy: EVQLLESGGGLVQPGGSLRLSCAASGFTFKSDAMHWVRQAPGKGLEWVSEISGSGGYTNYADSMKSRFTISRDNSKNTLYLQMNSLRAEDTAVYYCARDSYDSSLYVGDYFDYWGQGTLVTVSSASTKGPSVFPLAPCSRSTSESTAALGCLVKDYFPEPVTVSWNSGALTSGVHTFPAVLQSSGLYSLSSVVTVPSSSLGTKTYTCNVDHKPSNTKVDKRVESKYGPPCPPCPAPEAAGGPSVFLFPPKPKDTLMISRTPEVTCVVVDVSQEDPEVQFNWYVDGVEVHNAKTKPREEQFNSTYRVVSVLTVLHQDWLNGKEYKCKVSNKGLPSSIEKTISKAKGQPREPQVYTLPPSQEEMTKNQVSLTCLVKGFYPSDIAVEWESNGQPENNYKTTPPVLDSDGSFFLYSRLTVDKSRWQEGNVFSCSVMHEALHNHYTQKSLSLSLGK
light: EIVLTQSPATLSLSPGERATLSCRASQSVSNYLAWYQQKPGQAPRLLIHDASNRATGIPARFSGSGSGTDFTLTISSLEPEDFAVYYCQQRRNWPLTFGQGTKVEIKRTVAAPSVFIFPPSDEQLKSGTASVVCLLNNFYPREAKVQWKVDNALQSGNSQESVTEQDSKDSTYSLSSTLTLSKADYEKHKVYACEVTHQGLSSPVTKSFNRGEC
VH: B2 VH
VL: B2 VL
notes: IgG4 PAA; CD3 arm with F405L, R409K; also called PSMB362 x CD3B219
B12: PS3B61 (bispecific antibody, human IgG4 S228P, kappa, F234A L235A)
heavy: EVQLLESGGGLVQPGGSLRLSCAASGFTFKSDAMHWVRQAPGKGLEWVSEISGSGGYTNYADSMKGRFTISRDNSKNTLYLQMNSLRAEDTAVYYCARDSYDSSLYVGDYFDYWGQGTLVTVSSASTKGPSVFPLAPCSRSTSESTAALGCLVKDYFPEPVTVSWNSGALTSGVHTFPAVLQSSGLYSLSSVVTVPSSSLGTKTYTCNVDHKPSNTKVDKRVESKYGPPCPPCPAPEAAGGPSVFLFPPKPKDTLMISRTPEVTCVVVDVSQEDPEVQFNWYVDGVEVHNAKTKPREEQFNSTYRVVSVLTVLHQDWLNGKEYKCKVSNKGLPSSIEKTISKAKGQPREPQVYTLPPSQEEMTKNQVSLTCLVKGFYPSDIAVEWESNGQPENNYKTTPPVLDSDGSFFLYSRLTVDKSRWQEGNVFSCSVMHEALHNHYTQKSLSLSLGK
light: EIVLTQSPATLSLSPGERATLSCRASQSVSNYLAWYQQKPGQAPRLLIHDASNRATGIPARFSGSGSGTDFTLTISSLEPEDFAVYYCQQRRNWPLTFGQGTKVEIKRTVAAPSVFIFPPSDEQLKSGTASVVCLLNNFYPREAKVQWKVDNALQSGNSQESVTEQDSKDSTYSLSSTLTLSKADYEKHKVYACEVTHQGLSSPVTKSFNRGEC
VH: B2 VH
VL: B2 VL
notes: IgG4 PAA; CD3 arm with F405L, R409K; also called PSMB345 x CD3B219
B13: PS3B85 (bispecific antibody, human IgG4 S228P, kappa, lambda, F234A L235A)
heavy 1: not shown
light 1: not shown
heavy 2: QVQLQQSGPRLVRPSQTLSLTCAISGDSVFNNNAAWSWIRQSPSRGLEWLGRTYYRSKWLYDYAVSVKSRITVNPDTSRNQFTLQLNSVTPEDTALYYCARGYSSSFDYWGQGTLVTVSSASTKGPSVFPLAPCSRSTSESTAALGCLVKDYFPEPVTVSWNSGALTSGVHTFPAVLQSSGLYSLSSVVTVPSSSLGTKTYTCNVDHKPSNTKVDKRVESKYGPPCPPCPAPEAAGGPSVFLFPPKPKDTLMISRTPEVTCVVVDVSQEDPEVQFNWYVDGVEVHNAKTKPREEQFNSTYRVVSVLTVLHQDWLNGKEYKCKVSNKGLPSSIEKTISKAKGQPREPQVYTLPPSQEEMTKNQVSLTCLVKGFYPSDIAVEWESNGQPENNYKTTPPVLDSDGSFLLYSKLTVDKSRWQEGNVFSCSVMHEALHNHYTQKSLSLSLGK
light 2: QSALTQPASVSGSPGQSITISCTGTSSNIGTYKFVSWYQQHPDKAPKVLLYEVSKRPSGVSSRFSGSKSGNTASLTISGLQAEDQADYHCVSYAGSGTLLFGGGTKLTVLGQPKAAPSVTLFPPSSEELQANKATLVCLISDFYPGAVTVAWKADSSPVKAGVETTTPSKQSNNKYAASSYLSLTPEQWKSHRSYSCQVTHEGSTVEKTVAPTECS
notes: IgG4 PAA; also called PSMB345 x CD3B376
B14: PS3B86 (bispecific antibody, human IgG4 S228P, kappa, lambda, F234A L235A)
heavy 1: not shown
light 1: not shown
heavy 2: B13 heavy 2
light 2: B13 light 2
notes: IgG4 PAA; also called PSMB346 x CD3B376
B15: TMEB674 (antibody, human IgG4 S228P, kappa, F234A L235A, V domains shown)
VH: VQLLESGGGLVQPPGGSLRLSCAASGFTFSSYSMSWVRQAPGKGLEWVSVISGGGSFTSYADSVKGRFTISRDNSNNTLYLQMSSLRAEDTAFYYCARMPLNSPHDCWGQGTLVTVSS
VL: AIQMTQSPSSLSASVGDRVTITCRASQGIRNDLGWYQQKPGKAPKLLIYAASSLQSGVPSRFSGSGSGTDFTLTISSLQPEDFATYYCLQDYNYSLTFGGGTKVEIRR
notes: IgG4 PAA anti-TMEFF2; also called TMEH410/TMEL126
B16: TMEB675 (antibody, human IgG4 S228P, kappa, F234A L235A, V domains shown)
VH: EVQLLESGGGLVQRGGSLRPSCAASGFTFSSYSMSWVRQAPGKGLEWVSVISGSGGFTDYADSVKGRFTISRDNSKNTLYLHMNSLRAEDTAVYYCARMPLNSPHDYWGQGTLVTVSS
VL: B15 VL with S95A, R107K
notes: IgG4 PAA anti-TMEFF2; also called TMEH411/TMEL127
B17: TMEB565 (antibody, human IgG4 S228P, kappa, F234A L235A, V domains shown)
VH: QVQLVQSGAEVKKPGSSVKVSCKASGGTFSSYYISWVRQAPGQGLEWMGGIIPISGRANYAQKFQGRVTITADESTSTAYMELSSLRSEDTAVYYCARDGYSSGRSTTYAFDYWGQGTLVTVSS
VL: EIVLTQSPGTLSLSPGERATLSCRASQSVATYYLAWYQQKPGQAPRLLIYGASSRATGIPDRFSGSGSGTDFTLTISRLEPEDFAVYYCQQYGYNPITFGQGTKVEIKR
notes: IgG4 PAA anti-TMEFF2; also called TMEH396/TMEL111
B18: TMEB570 (antibody, human IgG4 S228P, kappa, F234A L235A, V domains shown)
VH: B17 VH
VL: B17 VL with A30S, S54Y, Y94H, N95S
notes: IgG4 PAA anti-TMEFF2; also called TMEH396/TMEL112

These binders were tested against T1, human PSMA on cells (LNCaP) (human, UniProt Q04609 1-750) (assay: flow cytometry cell binding assay on LNCaP cells).
T1 construct: whole, on cells; also called LNCaP cells
Experimental: (§1) PSMA×CD3 bispecific antibodies were tested for binding to PSMA positive cell line, LNCAP, to PSMA negative cell line, PC3. To assess the binding capabilities of the PSMA bispecific antibodies, the cell-binding assay was utilized (described previously). Bispecific antibodies were normalized for protein concentration and then incubated with the same number of cells expressing either human or cyno PSMA. The MFI at each concentration was collected by flow cytometry and plotted as a function of concentration. Data was transformed via log 10 and then plotted. Nonlinear regression of binding curves was done to determine EC50s.

T1 sequence (Q04609 whole entry): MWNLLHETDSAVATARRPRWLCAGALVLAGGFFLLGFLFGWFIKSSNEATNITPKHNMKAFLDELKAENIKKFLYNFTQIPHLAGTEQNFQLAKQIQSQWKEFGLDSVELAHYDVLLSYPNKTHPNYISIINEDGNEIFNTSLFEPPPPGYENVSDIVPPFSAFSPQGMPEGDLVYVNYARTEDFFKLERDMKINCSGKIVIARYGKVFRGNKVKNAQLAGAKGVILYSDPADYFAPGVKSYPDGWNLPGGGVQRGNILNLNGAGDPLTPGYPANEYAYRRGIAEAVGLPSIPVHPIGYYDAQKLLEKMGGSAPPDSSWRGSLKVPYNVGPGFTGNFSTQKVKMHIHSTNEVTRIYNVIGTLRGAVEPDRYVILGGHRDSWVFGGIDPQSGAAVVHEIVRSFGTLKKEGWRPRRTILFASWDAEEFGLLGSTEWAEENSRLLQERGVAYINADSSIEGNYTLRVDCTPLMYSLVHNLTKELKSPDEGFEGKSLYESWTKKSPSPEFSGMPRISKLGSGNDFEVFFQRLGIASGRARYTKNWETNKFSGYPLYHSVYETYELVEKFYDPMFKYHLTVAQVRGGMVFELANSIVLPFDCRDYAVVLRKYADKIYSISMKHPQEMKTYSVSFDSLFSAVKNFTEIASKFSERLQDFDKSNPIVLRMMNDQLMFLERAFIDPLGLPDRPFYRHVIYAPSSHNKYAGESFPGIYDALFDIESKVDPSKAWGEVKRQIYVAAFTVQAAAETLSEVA

Q: How did the “EC50 (read off the curve)” value turn out when B1 was run?
A: ~6 nM

Q: Does B2 bind?
A: binds

Q: B3 was tested. Which “EC50 (read off the curve)” value did it give?
A: ~8 nM

Q: Does B4 bind?
A: binds

Q: Does B5 bind?
A: binds

Q: Does B6 bind?
A: binds

Q: Does B7 bind?
A: binds

Q: Does B8 bind?
A: binds

Q: B9 was tested. Which “EC50 (read off the curve)” value did it give?
A: ~2 nM

Q: Does B10 bind?
A: binds

Q: Does B11 bind?
A: binds

Q: Does B12 bind?
A: binds

Biological target: T1, human PSMA on cells (LNCaP)
Assay: flow cytometry cell binding assay on LNCaP cells
Remark: another data set of the same source
Experimental: as §1

Q: For B1, which “EC50 (read off the curve)” value is on record?
A: ~6 nM

Q: Does B13 bind?
A: binds

Q: Does B14 bind?
A: binds

What follows are binders tested against T2, TMEW1 (TMEFF2-FL-ECD-His-Avitag) (human, UniProt Q9UIK5 41-320) (assay: ProteOn SPR, mAb captured on anti-human Fc, TMEFF2 as analyte).
T2 construct: Human TMEFF2 ECD with C-terminal G3S, 6xHis tag and Avi-tag, all in the entry; also called TMEFF2 ECD
T2 sequence: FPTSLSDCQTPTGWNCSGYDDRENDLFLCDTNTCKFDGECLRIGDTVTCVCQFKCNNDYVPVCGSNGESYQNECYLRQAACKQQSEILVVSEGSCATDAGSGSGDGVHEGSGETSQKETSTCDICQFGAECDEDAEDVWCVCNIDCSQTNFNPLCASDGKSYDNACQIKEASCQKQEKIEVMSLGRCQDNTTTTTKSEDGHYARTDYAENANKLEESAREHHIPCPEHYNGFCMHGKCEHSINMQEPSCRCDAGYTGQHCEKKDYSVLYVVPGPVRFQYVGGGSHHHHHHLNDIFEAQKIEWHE
Experimental: (§2) The binding of anti-TMEFF2 mAbs to the ECD and the membrane proximal region of human TMEFF2 was measured by ProteOn SPR (Bio-Rad). The purified mAbs (diluted to a final concentration of 1 μg/ml in PBST) were used as ligands in the assay and were immobilized through Fc capture to Goat Anti-Human (GAH) IgG Fc. For amine coupling of the GAH IgG Fc, a 1:1 mixture of EDC (40 mM) and NHS (10 mM) were mixed immediately prior to injection to activate the chip surface and injected in the vertical orientation. GAH-Fc (at 30 μg/ml) antibody in acetate buffer (pH 5.0) was then flowed over the surface for 300 seconds at 30 μl/min in the vertical orientation. Any remaining reactive carboxyl groups in the surface were subsequently deactivated by injecting 1M Ethanolamine (pH 8.5) in the same orientation. The antibodies were used at a concentration of 1 μg/ml for immobilization. The antibodies were flowed over the surface in the horizontal direction. Human TMEFF2 ECD or the membrane proximal region in 3-fold dilution series of 5 concentrations (highest concentration ranging from 100-600 nM) was flowed in as analyte in the vertical orientation to bind to the captured molecules. A buffer sample was also injected in the 6th channel in the vertical direction to monitor any drift in the baseline signal. The association and dissociation phases for all concentrations were monitored over 3 minutes and 30 (or 15) minutes respectively, at a flow rate of 100 μL/min. The binding surface was regenerated for the next interaction cycle using an 18 second pulse of 0.8% phosphoric acid to remove the bound antigen. The raw data were processed by subtracting two sets of reference data from the response data: 1) the inter-spot signals to correct for the non-specific interactions between the antigen and the empty chip surface; 2) the empty channel signals (where only PBST was flowed over the chip) to correct for non-specific baseline drift.

Q: With B15 as the binder, how does the Kd read?
A: 0.1 nM

Q: And the koff?
A: 0.000162 s⁻¹

Q: What about the kon of the same binder?
A: 2.01e+06 M⁻¹ s⁻¹

Q: For B16, which Kd is on record?
A: 0.1 nM

Q: And the koff?
A: 0.000153 s⁻¹

Q: What about the kon of the same binder?
A: 2.65e+06 M⁻¹ s⁻¹

Q: How did the Kd turn out when B17 was run?
A: 0.02 nM

Q: What about the koff of the same binder?
A: 9.13e-06 s⁻¹

Q: What about the kon of the same binder?
A: 384000 M⁻¹ s⁻¹

Q: With B18 as the binder, how does the Kd read?
A: 0.11 nM

Q: And the koff?
A: 5.13e-05 s⁻¹

Q: What about the kon of the same binder?
A: 464000 M⁻¹ s⁻¹

These binders were tested against T3, TMEW19 (spTMEFF2(230-320)G3S-H6) (human, UniProt Q9UIK5 230-320) in the same assay as above.
T3 construct: Residues 230-320 of human TMEFF2 with G3S and 6xHis tag, all in the entry; also called TMEFF2 membrane proximal region; MP
T3 sequence: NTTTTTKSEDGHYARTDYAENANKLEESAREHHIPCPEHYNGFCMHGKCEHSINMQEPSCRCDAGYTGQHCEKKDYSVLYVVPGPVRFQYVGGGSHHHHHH
Experimental: as §2

Q: With B15 as the binder, how does the Kd read?
A: 0.2 nM

Q: And the koff?
A: 0.000175 s⁻¹

Q: What about the kon of the same binder?
A: 837000 M⁻¹ s⁻¹

Q: What does the source list for B16?
A: Kd: 0.2 nM; koff: 0.000158 s⁻¹; kon: 972000 M⁻¹ s⁻¹

Q: With B17 as the binder, how does the Kd read?
A: 0.01 nM

Q: And the koff?
A: 6.39e-06 s⁻¹

Q: What about the kon of the same binder?
A: 777000 M⁻¹ s⁻¹

Q: What does the source list for B18?
A: Kd: 0.06 nM; koff: 4.67e-05 s⁻¹; kon: 762000 M⁻¹ s⁻¹

Reference: patent US20230322924A1 (Janssen / Centocor, published 2023)
